Experimental data taken from US20220363748A1 (AstraZeneca / MedImmune, published 2022).
Residue numbers refer to the chain shown, from its start.

Legend:
[1] = target: T1, RAGE-Fc (R&D Systems #1145-RG) (UniProt Q15109 24-344); test: ELISA: biotinylated antigen on streptavidin plate, RAGE-Fc, detection with anti-human IgG HRP
T1 construct: Bought reagent; not shown: Fc part of the bought fusion; detected with anti-human IgG
Procedure: (§1) Plates were washed 3×with 200 μl PBS-T (PBS +1% (v/v) Tween-20) and blocked with 300 μl/well blocking buffer (PBS with 1% BSA (Sigma, A9576)) for 1 hour. […] Plates were washed with 200 μl PBS-T three times. […] Plates were washed 3×with PBS-T and developed with TMB, 100 μl/well (Sigma, T0440). The reaction was quenched with 50 μl/well 0.1 M H2504. Absorbance was read at 450nm on the Cytation Gen5 or similar equipment.

[2] = target: T2, EGFR-Fc (R&D Systems #344-ER-050) (UniProt P00533 25-645); test: ELISA: biotinylated antigen on streptavidin plate, EGFR-Fc with or without untagged RAGE, detection with anti-human IgG HRP
T2 construct: Bought reagent; not shown: Fc part of the bought fusion; detected with anti-human IgG
Procedure: as §1

[3] = target: T1, RAGE-Fc (R&D Systems #1145-RG); test: ELISA: biotinylated oxIL-33 on streptavidin plate, RAGE-Fc 10 µg/mL, anti-human IgG HRP
Procedure: as §1

[4] = target: T3, ST2S-Fc-His6 fusion protein (human, UniProt Q01638 19-328); test: depletion of remaining reduced IL-33 from the oxIL-33 preparation, in solution, then size exclusion
T3 construct: CD33 signal peptide used for secretion, not part of the protein; also called soluble human ST2S extracellular domain fused to human IgG1 Fc-His6; human ST2 ECD
T3 sequence: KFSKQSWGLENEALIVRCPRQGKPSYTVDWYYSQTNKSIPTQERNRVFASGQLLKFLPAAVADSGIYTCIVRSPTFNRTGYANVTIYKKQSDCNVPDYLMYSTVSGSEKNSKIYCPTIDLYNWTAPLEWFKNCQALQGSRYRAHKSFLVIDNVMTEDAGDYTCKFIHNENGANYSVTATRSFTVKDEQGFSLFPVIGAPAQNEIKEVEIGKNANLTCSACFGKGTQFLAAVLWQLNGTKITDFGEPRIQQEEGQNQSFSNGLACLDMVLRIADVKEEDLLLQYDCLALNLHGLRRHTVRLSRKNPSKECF

[5] = target: T2, EGFR-Fc (R&D Systems #344-ER-050); test: ELISA: biotinylated antigen on streptavidin plate, EGFR-Fc, detection with anti-human IgG HRP
Procedure: as §1

[6] = target: T1, RAGE-Fc (R&D Systems #1145-RG); test: ELISA: biotinylated antigen on streptavidin plate, RAGE-Fc at 10 µg/mL, detection with anti-human IgG HRP
Procedure: as §1

T1 sequence (Q15109 24-344 limits assumed): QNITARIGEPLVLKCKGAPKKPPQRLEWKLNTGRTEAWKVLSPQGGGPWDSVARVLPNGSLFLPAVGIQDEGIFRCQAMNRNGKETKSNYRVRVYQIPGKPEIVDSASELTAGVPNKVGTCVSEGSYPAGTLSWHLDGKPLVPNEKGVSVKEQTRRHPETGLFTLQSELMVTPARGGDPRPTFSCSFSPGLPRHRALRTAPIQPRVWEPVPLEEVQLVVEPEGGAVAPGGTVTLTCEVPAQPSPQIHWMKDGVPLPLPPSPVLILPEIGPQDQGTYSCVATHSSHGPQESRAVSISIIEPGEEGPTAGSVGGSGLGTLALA

B1: Biotinylated EGF (Thermo) (ligand, UniProt P01133 971-1023, looked up)
chain: NSDSECPLSHDGYCLHDGVCMYIEALDKYACNCVVGYIGERCQYRDLKWWELR
modifications: biotinylated (bought so)
- binding result [1]: no binding

B2: IL-33[C->S] (ligand)
cytokine: MHHHHHHHHHHAAGLNDIFEAQKIEWHEAAIEGRSITGISPITEYLASLSTYNDQSITFALEDESYEIYVEDLKKDEKKDKVLLSYYESQHPSNESGDGVDGKMLMVTLSPTKDFWLHANNKEHSVELHKSEKPLPDQAFFVLHNMHSNSVSFESKTDPGVFIGVKDNHLALIKVDSSENLSTENILFKLSET
modifications: biotinylated at the Avitag with BirA
notes: also called IL33-16
- binding result [1]: no binding
- binding result [2]: no binding

B3: Avitag_IL-33-01 (oxidised IL-33), biotinylated (ligand)
chain: B2 cytokine with S131C, S150C, S155C, S182C
modifications: biotinylated on the Avitag with BirA; oxidised (disulphide bonded) form of IL-33
notes: also called oxIL-33; oxidised IL-33-01
- binding result [3]: binds

B4: Untagged IL33-01 (reduced IL-33) (ligand)
chain: SITGISPITEYLASLSTYNDQSITFALEDESYEIYVEDLKKDEKKDKVLLSYYESQHPSNESGDGVDGKMLMVTLSPTKDFWLHANNKEHSVELHKCEKPLPDQAFFVLHNMHSNCVSFECKTDPGVFIGVKDNHLALIKVDSSENLCTENILFKLSET
notes: also called redIL-33; wild type IL-33
- binding result [4]: binds

B5: HMGB1 (R&D systems 1690-HMB-050), biotinylated (ligand, UniProt P09429 1-215, looked up)
chain: MGKGDPKKPRGKMSSYAFFVQTCREEHKKKHPDASVNFSEFSKKCSERWKTMSAKEKGKFEDMAKADKARYEREMKTYIPPKGETKKKFKDPNAPKRPPSAFFLFCSEYRPKIKGEHPGLSIGDVAKKLGEMWNNTAADDKQPYEKKAAKLKEKYEKDIAAYRAKGKPDAAKKGVVKAEKSKKKKEEEEDEEDEEDEEEEEDEEDEDEEEDDDDE
modifications: biotinylated via free amines (EZ link Sulfo-NHS-LC-Biotin)
- binding result [5]: no binding
- binding result [6]: binds
